In test [1] the target is T1, recombinant human TNFα (human, UniProt P01375 77-233, 125I-labeled in the receptor inhibition assay). The test can be described thus: cell-based or functional assay.
In test [2] the target is T1, recombinant human TNFα. The test can be described thus: competition: 125I-TNFα binding to coated p55-sf2, hybridoma supernatants. As to the method: (§1) 50:1 of p55-sf2 at 0.5:g/ml in PBS was added to Optiplates to coat the wells during a one-hour incubation at 37° C. Serial dilutions of the eight TNV cell supernatants were prepared in 96-well round-bottom plates using PBS/0.1% BSA as diluent. […] The mixture was preincubated for one hour at RT. The coated Optiplates were washed to remove unbound p55-sf2 and 50:1 of the ¹²⁵I-TNFα/cell supernatant mixture was transferred to the Optiplates. After 2 hrs at RT, Optiplates were washed three times with PBS-Tween. […] of Microscint-20 was added and the cpm bound determined using the TopCount gamma counter.
A simple binding assay was done to determine whether the eight TNV mAbs contained in hybridoma cell supernatant were capable of blocking TNFα binding to receptor. The concentrations of the TNV mAbs in their respective cell supernatants were first determined by standard ELISA analysis for human IgG.

The target of test [3] is T1, recombinant human TNFα. The test can be described thus: competition radioligand assay: mAb in hybridoma supernatant preincubated with 5 ng/ml 125I-TNFα, then binding of 125I-TNFα to plate-coated p55-sf2 counted as cpm bound. As to the method:
Varying amounts of hybridoma cell supernatants containing known amounts of TNV mAb were preincubated with a fixed concentration (5 ng/ml) of ¹²⁵I-labeled TNFα. […] The amount of TNFα that bound to the p55 receptor in the presence of the mAbs was determined after washing away the unbound material and counting using a gamma counter. […] Each sample was tested in duplicate. The results shown are representative of two independent experiments.
as §1
A simple binding assay was done to determine whether the eight TNV mAbs contained in hybridoma cell supernatant were capable of blocking TNFα binding to receptor.

Test [4] deals with T2, human lymphotoxin (human, UniProt P01374 35-205, limits assumed).
T2 sequence (looked up): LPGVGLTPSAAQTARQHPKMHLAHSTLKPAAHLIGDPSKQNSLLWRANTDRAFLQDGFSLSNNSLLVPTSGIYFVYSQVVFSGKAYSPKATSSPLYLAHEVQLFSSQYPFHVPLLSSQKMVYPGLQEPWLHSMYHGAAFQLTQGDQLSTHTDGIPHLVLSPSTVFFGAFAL
The test can be described thus: not described.

B1: GenTNV148.26.12 (antibody, human IgG1, kappa, V domains shown)
VH: QVQLVESGGGVVQPGRSLRLSCAASGFIFSSYAMHWVRQAPGNGLEWVAFMSYDGSNKKYADSVKGRFTISRDNPKNTLYLQMNSLRAEDTAVYYCARDRGIAAGGNYYYYGMDVWGQGTTVTVSS
VL: EIVLTQSPATLSLSPGERATLSCRASQSVYSYLAWYQQKPGQAPRLLIYDASNRATGIPARFSGSGSGTDFTLTISSLEPEDFAVYYCQQRSNWPPFTFGPGTKVDIKR
notes: Hybridoma-derived human IgG1 kappa; also called C420A
As for B1, the “neutralizing TNFα bioactivity” value in test [1] was found to be 4 fold. For the same molecule, in test [2], the “fold better at blocking TNF binding (against TNV118 and TNV14)” value was approximately 4 fold. Further, in test [3], the “IC50 (read off the curve)” value is approximately 3 ng/mL.

B2: GenTNV15.28.11 (antibody, V domains shown)
VH: QVQLVESGGGVVQPGRSLRLSCAASGFTFSSYAMHWVRQAPGKGLEWVAFILYDGSNKKYADSVKGRFTISRDNSKNALYLQMNSLRAEDTAVYYCARDRGVSAGGNYYYYGMDVWGQGTTVTVSS
VL: EIVLTQSPATLSLSPGERATLSCRASQSVSSYLAWYQQKPGQAPRLLIYDASNRATGIPARFSGSGSGTDFTLTISSLEPEDFAVYYCQQRSNWPPFTFGPGTKVDIK
On to B2, for which the “IC50 (read off the curve)” value in test [3] is approximately 3 ng/mL.

B3: GenTNV86.14.34 (antibody, human IgG1, kappa, V domains shown)
VH: QVQLVESGGGVVQPGRSLRLSCAASGFIFSSYAMHWVRQAPGNGLEWVAFMSYDGSNKKYADSVKGRFTISRDNPKNTLYLQMNSLRAEDTAVYYCARDRGIAAGGNYYYYGMDVWGQGTTVTVSS
VL: EIVLTQSPATLSLSPGERATLSCRASQSVYSYLAWYQQKPGQAPRLLIYDASNRATGIPARFSGSGSGTDFTLTISSLEPEDFAVYYCQQRSNWPPFTFGPGTKVDIKR
notes: The constant region allotype is uncertain, as explained in the m8 note; also called C417A
For the molecule B3, the “fold better at blocking TNF binding (against TNV118 and TNV14)” value in test [2] was approximately 4 fold.

B4: golimumab (antibody, human IgG1, kappa, V domains shown)
VH: QVQLVESGGGVVQPGRSLRLSCAASGFIFSSYAMHWVRQAPGNGLEWVAFMSYDGSNKKYADSVKGRFTISRDNSKNTLYLQMNSLRAEDTAVYYCARDRGIAAGGNYYYYGMDVWGQGTTVTVSS
VL: EIVLTQSPATLSLSPGERATLSCRASQSVYSYLAWYQQKPGQAPRLLIYDASNRATGIPARFSGSGSGTDFTLTISSLEPEDFAVYYCQQRSNWPPFTFGPGTKVDIKR
modifications: N-glycosylated on asparagine 306
notes: Fully human IgG1 kappa; The commercial material is expressed in Sp2/0 cells; also called SIMPONI
As for B4, the binding result in test [4] is “no binding”.

(Values after patent US20250019428A1 (Janssen / Centocor, published 2025).)
